Results from patent publication US20260008818A1, “CYCLIC PEPTIDE OR SALT THEREOF, AND USES THEREOF” (FUJIFILM Corporation, priority 2023, published 2026).
Bridge positions count the residues as written; N and C are the ends. Ends that are not written are not given here. COCH2 = acetyl group that carries the bridge

Assays:
[1] = biological target: T1, FGFR3 Protein, Human, Recombinant (ECD, His Tag) (Sino Biological, 16044-H08H) (human, UniProt P22607 23-375); assay: SPR, peptide immobilized, 1 umol/L FGFR
T1 construct: extracellular domain; bought reagent; not shown: His tag
T1 sequence (looked up): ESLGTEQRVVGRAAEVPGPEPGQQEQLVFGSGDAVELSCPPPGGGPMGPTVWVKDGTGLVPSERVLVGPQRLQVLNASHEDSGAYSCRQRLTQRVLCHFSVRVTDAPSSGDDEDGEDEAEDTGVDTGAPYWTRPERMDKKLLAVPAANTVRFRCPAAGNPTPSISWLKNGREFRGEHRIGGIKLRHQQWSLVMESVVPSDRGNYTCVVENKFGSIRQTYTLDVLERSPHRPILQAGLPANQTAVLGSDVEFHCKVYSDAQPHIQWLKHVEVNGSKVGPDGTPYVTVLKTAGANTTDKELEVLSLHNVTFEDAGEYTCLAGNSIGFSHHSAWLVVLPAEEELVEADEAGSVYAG
Description: (§1) A CM5 sensor chip (Cytiva, 29149603) was set in Biacore-T200 (manufactured by Cytiva) which is a surface plasmon resonance device, and an HBS-EP buffer (Cytiva, BR100826) was added as a running buffer at a flow rate of 10 μL/min to equilibrate the flow channel. Next, 70 μL of a mixed aqueous solution of 0.2 mol/L 1-(3-dimethylaminopropyl)-3-ethylcarbodiimide (EDC) and 0.05 mol/L N-hydroxysuccinimide (NHS) was added to activate the sensor chip. Then, a cyclic peptide prepared to 2 mg/mL in HBS-EP buffer was added thereto to perform immobilization at about 200 RU. Thereafter, the blocking treatment was performed with an ethanolamine solution. In addition, in another flow channel of the same sensor chip, blocking treatment was performed immediately after activation without […].
(§2) After various FGFRs (FGFR1 Protein, Human, Recombinant (His Tag) (Sino Biological, 10616-H08H), FGFR3 Protein, Human, Recombinant (ECD, His Tag) (Sino Biological, 16044-H08H), FGFR4 Protein, Human, Recombinant (His Tag) (Sino Biological, 10538-H08H)) diluted with HBS-EP to 1 μmol/L at 25° C. was added to each flow channel of the cyclic peptide-immobilized sensor chip prepared above, for 10 minutes, HBS-EP was allowed to flow as a running buffer for 30 minutes, and the binding of various FGFRs to the cyclic peptide was measured. […] The binding amount of the cyclic peptide was evaluated from the difference between the measured value of Biacore-T200 in the flow channel in which the cyclic peptide was immobilized and the measured value of Biacore-T200 in the flow channel in which the cyclic peptide was not immobilized, in a case where 1 μmol/L FGFR was allowed to flow.
(§3) The binding amount of FGFR evaluated above was normalized to the binding amount of FGFR molecules per one molecule of the cyclic peptide using the molecular weights of the cyclic peptide and FGFR, and the binding affinity to FGFR was evaluated according to the following evaluation criteria.

[2] = biological target: T2, FGFR4 Protein, Human, Recombinant (His Tag) (Sino Biological, 10538-H08H) (human, UniProt P22455 22-369); assay: SPR, peptide immobilized, 1 umol/L FGFR
T2 construct: bought reagent; not shown: His tag
T2 sequence (looked up): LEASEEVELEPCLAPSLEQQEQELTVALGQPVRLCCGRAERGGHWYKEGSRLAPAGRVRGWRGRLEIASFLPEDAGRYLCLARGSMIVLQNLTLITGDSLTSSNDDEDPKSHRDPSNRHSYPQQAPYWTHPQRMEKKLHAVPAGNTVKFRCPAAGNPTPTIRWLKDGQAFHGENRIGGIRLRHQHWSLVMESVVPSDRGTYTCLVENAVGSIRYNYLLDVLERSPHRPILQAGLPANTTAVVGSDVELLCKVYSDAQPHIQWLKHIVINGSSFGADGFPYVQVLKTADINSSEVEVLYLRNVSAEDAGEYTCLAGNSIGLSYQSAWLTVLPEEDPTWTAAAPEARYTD
Description: as §1, §2, §3

[3] = biological target: T3, FGFR1 Protein, Human, Recombinant (His Tag) (Sino Biological, 10616-H08H) (human, UniProt P11362 22-376); assay: SPR, peptide immobilized, 1 umol/L FGFR
T3 construct: bought reagent; not shown: His tag
T3 sequence (looked up): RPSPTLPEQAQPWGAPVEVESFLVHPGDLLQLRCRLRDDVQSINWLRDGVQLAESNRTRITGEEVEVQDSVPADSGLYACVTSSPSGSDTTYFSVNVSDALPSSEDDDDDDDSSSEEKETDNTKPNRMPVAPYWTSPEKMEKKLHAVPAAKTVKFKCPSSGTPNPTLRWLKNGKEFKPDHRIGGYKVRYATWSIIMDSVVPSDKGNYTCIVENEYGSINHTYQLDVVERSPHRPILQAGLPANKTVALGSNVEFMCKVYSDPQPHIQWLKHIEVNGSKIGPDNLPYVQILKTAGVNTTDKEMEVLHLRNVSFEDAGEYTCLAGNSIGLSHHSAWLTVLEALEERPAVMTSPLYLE
Description: as §1, §2, §3

[4] = biological target: T4, Recombinant Human FGFR1 alpha (IIIc) Fc Chimera Protein, CF (R&D systems, 658-FR-050) (human, UniProt P11362 22-376); assay: SPR, FGFR1-Fc immobilized, 10 nmol/L peptide
T4 construct: bought reagent; not shown: Fc of the bought chimera
T4 sequence (looked up): T3 sequence (looked up)
Description: A CM5 sensor chip (Cytiva, 29149603) was set in Biacore-T200 (manufactured by Cytiva) which is a surface plasmon resonance device, and an HBS-EP buffer (Cytiva, BR100826) was added as a running buffer at a flow rate of 10 μL/min to equilibrate the flow channel. Next, 70 μL of a mixed aqueous solution of 0.2 mol/L 1-(3-dimethylaminopropyl)-3-ethylcarbodiimide (EDC) and 0.05 mol/L N-hydroxysuccinimide (NHS) was added to activate the sensor chip. Then, Recombinant Human FGFR 1 alpha (IIIc) Fc Chimera Protein CF (R&D systems, 658-FR-050) prepared at 50 nmol/L in an Acetate 4.5 buffer (Cytiva, BR100350) was added thereto to perform immobilization at about 5000 RU. Thereafter, the blocking treatment was performed with an ethanolamine solution. In addition, in another flow channel of the same sensor chip, blocking treatment was performed immediately after activation without immobilizing FGFR.
A cyclic peptide diluted to 10 nmol/L using HBS-EP was added to each flow channel of the FGFR-immobilized sensor chip produced above at 25° C. for 10 minutes, then HBS-EP was allowed to flow as a running buffer for 30 minutes, and the binding of the cyclic peptide to FGFR was measured. Thereafter, a regeneration treatment of removing the bound cyclic peptide was performed by repeating the flow of a regeneration liquid in which sodium chloride powder was dissolved in Glysine 1.5 (Cytiva, BR100354) to a final concentration of 0.15 mol/L for 1 minute in each flow channel twice. The binding amount of the cyclic peptide was evaluated from the difference between the measured value of Biacore-T200 in the flow channel in which FGFR was immobilized and the measured value of Biacore-T200 in the flow channel in which FGFR was not immobilated, in a case where a 10 nmol/L cyclic peptide was allowed to flow.

- binding amount (SPR, FGFR molecules bound per molecule of cyclic peptide at 1 umol/L FGFR) [1]: 0.01 to 0.05 moleculesoffgfr/onemoleculeofthecyclicpeptide
- binding amount (SPR, FGFR molecules bound per molecule of cyclic peptide at 1 umol/L FGFR) [2]: ≥ 0.05 moleculesoffgfr/onemoleculeofthecyclicpeptide
- binding amount (SPR, FGFR molecules bound per molecule of cyclic peptide at 1 umol/L FGFR) [3]: ≥ 0.05 moleculesoffgfr/onemoleculeofthecyclicpeptide
- binding amount (SPR, cyclic peptide molecules bound per one molecule of FGFR at 10 nmol/L peptide) [4]: ≥ 0.7 moleculesofthecyclicpeptide/onemoleculeoffgfr
Binder: HCSYERLQFHGHEAPFRVK(COCH2)VKKK (thioether 2-19; also: acetyl defined on Orn side-chain amine, here on K, chemically synthesized) [SEQ ID NO: 382]
